From US20240117018A1 (UNIVERSITY OF MARYLAND BALTIMORE, published 2024)
Like-named read-outs stand apart in the source and are kept apart here.

Experiments:
[1] = target: monomeric HIV-1 Ba-L gp120 (HIV-1 Ba-L)
[2] = target: monomeric HIV-1 Ba-L gp120 (HIV-1 Ba-L); remark: listed apart in the source
[3] = target: monomeric HIV-1 Ba-L gp120 (HIV-1 Ba-L); remark: listed apart in the source

B1: N49P11 (antibody, V domains shown)
V domain 1: SAELVQSGAVVKKPGTSVKVSCQAYGYTFTDYLIHWLRQAPGQGLEWMGWMNPVYGQVNYAQNFQGRVSMTRDIYRETAFLEVRDLKTDDTGTYYCVRDTGDGSRRHFDSINWFLDLWGRGTWIRVAP
V domain 2: QCVLTQPRSVSGSPGQSVTISCTGTHNYVSWCQHHPGNAPKLLLYDFDKRPSGISDRFSGSRSGNTASLTISGLQPEDEADYFCWAFEAFGGGTKVLVLR
Work on B1 yielded a Kd [1] of 15.6 nM.

B2: N49P7 (antibody)
heavy: not shown
light: QSALTQPRSVSASPGQSVTISCTGTHNLVSWCQHQPGRAPKLLIYDFNKRPSGVPDRFSGSGSGGTASLTITGLQDDDDAEYFCWAYEAFGGGTKLTVLGQPKAAPSVTLFPPSSEELQANKATLVCLISDFYPGAVTVAWKADSSPVKAGVETTTPSKQSNNKYAASSYLSLTPEQWKSHRSYSCQVTHEGSTVEKTVAPTECS
Binder B2 has a Kd [2] of 0.86 nM.

B3: N49P7.1 (antibody)
heavy: not shown
light: QSALTQPRSVSASPGQSVTISCTGTHNLVSWCQHQPGRAPKLLIYDFNKRPSGVPDRFSGSGSGGTASLTITGLQDDDDAEYFCWAYEAFGGGTKLTVLRQPKAAPSVTLFPPSSEELQANKATLVCLISDFYPGAVTVAWKADSSPVKAGVETTTPSKQSNNKYAASSYLSLTPEQWKSHRSYSCQVTHEGSTVEKTVAPTECS
B3 was tested, and the Kd [3] was 1.14 nM.
